Experiment: yeast display, Sf9 membrane polyspecificity reagent, FACS + sequencing; frameworks hold sequencing errors
Procedure, shortened: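 Nanobodies came from a synthetic yeast display library in Saccharomyces cerevisiae BJ5465, induced with galactose for 36–48 hours and stained for 1 hour at 4 °C with 10% biotinylated, detergent-solubilized Sf9 membrane reagent. Cells were enriched on streptavidin microbeads and then FACS-sorted, with low and high (top ~1%) gates set on anti-HA fluorescence for expression and streptavidin fluorescence for reagent binding. Each polyreactivity label reflects the gate a clone came from. Genes were amplified by colony PCR, sequenced by MiSeq 2 × 250 and filtered by CDR length.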

Sequence | polyreactivity (PSR sort gate)
QLQLVESGGGLVQAGGSLRLSSAPSGITLQYYAMGWYRQAPGKERELVAAISYRGGRTYYADSVKGRFTISRDNAKNTVYLQMNSLKPEDTAGYYCARRSSKPSSIQYYYWGQGTQVTVSS | high polyreactivity
QLQLVESGGGLVQAGGSLSLSCAASGSIFNSKRMGWYRPAPGKERELVAAITGGGSTNYADSVKGRFTISRDNAKNTVYLQMNSLKPEDTAVYYCAADYPPTFYYWYEEYEYWGQGTQVTVSS | low polyreactivity
QLQLVESGGRLVQAGGSLRLSCAASGRIFYANAMGWYRQAPGKERELVAAISSGGSTYYADSVKGRFTISRDNAKNTVLLQMNSLKPEDTAVYYCAVYTHKKVRPEYDYWGQGTQVTVSS | low polyreactivity
QLQLVESGRGLVQAGGSLRLRCAASGRTFNRYTMGGYRQAPGKERELVAAISRGAGTNYADSVKGRFTISRDNAKYTVYLQMKSLKPEDTAVYYCAAGYEIGYRTGRSGNTAHIYYWGQGTQVTVSS | high polyreactivity
QLQLVESGRGLVQAGGSLRLSCAASGIIFYYNAMGWYRQAPGKERELVARITWRAGSTYYADSVKGRFTISRDNAKNTVYLQMNSLKPEDTAVYYCAARFTTTGPRGYYYWGQGTQVTVSS | high polyreactivity
QLQLVESRGGLVQAGGSLRLSCASSGFIFKQNAMGWYRQAPGNERELVAAISVSGGSTYYADSVKGRFTISRDNAKNTVYLQMNSLKPEYSAVYYCNTRDRGDVVTGLDYWGQGTQVTVSS | low polyreactivity
QLQLVETGGGLVQAGGSLRLSCAASGRIYYGYAMGWYRPAPGKERELVAAISWSGGSTYYADSVKGRFTISRDNAKNTVYLQMNSLKPEDTAVYYCARDAPYLYRAFDYWGQGTQVTVSS | high polyreactivity
QLQLVETGGGLVQAGGSLRLSCAASGYIFVYNDMGWSRQAPGKERELVAAITFSGGITYYADSVKGRFTISRDNAKNTVYLQMNSLKPEDTAVYYCAAADYWFYYGYYLTMDYWGQGTQVTVSS | low polyreactivity
QQLQESGGGLVQAGGSLRLSCAASGSISGSVLMGLYRQAPGKEREFVASISLGGNTNYADSVKGRFTISRENGKITVFLQMNSLKPEVAAVYYCAAYISLFETHPYWGQGTQVTVRS | high polyreactivity
QVDLVESAGGLVQAGGSLRLSCAASGSIFPGYTMGWYRQAPGQERELVAAISRRGGSTYYADSVKGRFTISRDNAKNTVYLQMNSLIPEDTAVYYCAIVPDYRFEYWGQGSQVTVSS | high polyreactivity
QVELVDSGGGLVQAGGILRLSCPASGSTIPTNVMGWSRQAPGKERECVAAITWSVGSTYYADSVKGRFTISRDNAKNTVYLQMNSLKPEDTAVYYCTADSQVLSAPDDYWGQGTQVTVSS | low polyreactivity
QVELVESGGGLGQAGGSLRLSCAASGSTFASNTLGWYRQAPGKEREVVAAITQSGGTTYYADSVKGRFTISRDNAKNTVFLQMNSLKPEDTAVYYDYWGQGTQVTVSS | low polyreactivity
QVELVESGGGLVQAGGCLRLSCAASGGIFESYAMGWYRRAPGRERELVADSTSGGSTNYADSVKGRFTIAGDNAKNTLYLQMNSLKPEDTAVYYCAKEFYYSVGVNLGDSWGQGTQGTVSS | low polyreactivity
QVELVESGGGLVQAGGILRLSCAASGSTFSIYAMGWYRQGPGKERELVAAISGDGITKYADSVKGRFTISRDNAKNTVYLQMNSLKPEDTAVYYCNAHELTDDGKMDSWGQGTQVTVSS | low polyreactivity
QVELVESGGGLVQAGGSLRLRCAASGLTFYYYPMGWYRQAPGKERELFAAIASVGSTYYADSVKGRFTISRDNATNTVYLQMNSLKPDDTAVYYCAAKSFWWHEDYWGQGTQVTVSS | low polyreactivity
QVELVESGGGLVQAGGSLRLSCAASGFIFTYYAMGWYSQAPWKERELVATISSGGGSTYYADSVKGRFTISRDNAKNTVYLQMYSLNPEDTAVYYCAASRRITGIRYINRYAYWGQGTQVTVSS | high polyreactivity
QVELVESGGGLVQAGGSLRLSCAASGFTFNGTAMGWYRQAPGKDRELVAAMSRGGSPSYADSVKGRFTISRDNAKKTVYLPMNSLKPEATAVYYCAAVSYGRFRRYEYWVQGTQVTVSS | high polyreactivity
